One assay addresses Aβ monomer (Homo sapiens, UniProt P05067). The assay is described as follows: SPR. For orientation: SPR reads the build-up and loss of mass on a sensor chip optically.
The target of a further assay is Aβ protofibrils (Homo sapiens, UniProt P05067). As to the kind of experiment: SPR.

B1: Gantenerumab (antibody, V domains shown)
VH: QVELVESGGGLVQPGGSLRLSCAASGFTFSSYAMSWVRQAPGKGLEWVSAINASGTRTYYADSVKGRFTISRDNSKNTLYLQMNSLRAEDTAVYYCARGKGNTHKPYGYVRYFDVWGQGTLVTVSS
VL: DIVLTQSPATLSLSPGERATLSCRASQSVSSSYLAWYQQKPGQAPRLLIYGASSRATGVPARFSGSGSGTDFTLTISSLEPEDFATYYCLQIYNMPITFGQGTKVEIK
The term Kd denotes the free concentration of one partner at which half of the binding sites on the other are occupied at equilibrium, for simple one-to-one binding. Read a low Kd as a tighter complex. For B1, the Kd in the assay with Aβ monomer was 34 µM; with Aβ protofibrils it was 0.0008 µM.

The values above are taken from publication PMC6264593 (2018).
